The values below come from article PMC8708588, “Easy Expression and Purification of Fluorescent N-Terminal BCL11B CCHC Zinc Finger Domain” (Molecules, 2021).

Data set [1] concerns the molecule itself. Kind of data set: SEC; Superdex 200 Increase 3.2/300 on ÄKTAmicro; sizes from a calibration curve with protein standards. (In general: SEC sorts molecules by how far they enter the pores of the column.)
Another data set has as its target T1, CyPet-BCL11B_(42-94) (UniProt Q9C0K0 42-94).
T1 construct: B-cell lymphoma/leukemia 11B (BCL11B), N-terminal atypical CCHC zinc finger domain, amino acids 42-94; codon-optimized insert; Order on the chain: His6, CyPet, flexible linker (GGGGS)3, TEV-cleaving site, XhoI site, BCL11B 42-94, KpnI site; Fusion of 36 kDa; CyPet already has lysine at position 206; also called fluorescently tagged BCL11B_(42-94); CyPet-tagged N-terminal BCL11B CCHC zinc finger …
T1 sequence (looked up): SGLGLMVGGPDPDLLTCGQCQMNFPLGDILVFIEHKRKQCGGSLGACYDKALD
Kind of data set: FRET or BRET; CyPet- and mEYFP-tagged domain mixed 1:1, total protein 200 µg/mL, 20 mM HEPES, 150 mM NaCl, 1 mM DTT, pH 7.4; incubated 48 h at 4 °C; excitation 400 nm, emission spectra 420-700 nm at room temperature. To be noted: both partners purified. (Bioluminescence resonance energy transfer reports proximity on the nanometre scale.)

B1: untagged BCL11B_(42-94) zinc finger domain (domain or fragment)
chain: GLESGLGLMVGGPDPDLLTCGQCQMNFPLGDILVFIEHKRKQCGGSLGACYDKALD
notes: B-cell lymphoma/leukemia 11B (BCL11B), N-terminal atypical CCHC zinc finger domain, amino acids 42-94; 5.5 kDa; source: E. coli NiCo21 (DE3); TEV digest of purified CyPet- or mEYFP-BCL11B_(42-94), flow-through of IMAC; not shown: His6, N-terminal, cleaved; CyPet or mEYFP, N-terminal, cleaved
Regarding B1, the stoichiometry N (in general, the number of molecules, sites or subunits per partner or assembly) in data set [1] is 4.

B2: mEYFP-BCL11B_(42-94) (domain or fragment, UniProt Q9C0K0 42-94, looked up)
chain: T1 sequence (looked up)
notes: B-cell lymphoma/leukemia 11B (BCL11B), N-terminal atypical CCHC zinc finger domain, amino acids 42-94; codon-optimized insert; Fusion of 36 kDa; also called fluorescently tagged BCL11B_(42-94); source: E. coli NiCo21 (DE3), purified (IMAC, HisTrap excel); not shown: His6, N-terminal, kept; mEYFP (EYFP with A206K), N-terminal, kept
In the case of B2, the binding result (in data set [1]; with CyPet-BCL11B_(42-94)) was “binds” throughout.
